Residues, ends and D or L forms follow the SMILES beside them. *: point of attachment. Cbz = O=C(OCc1ccccc1)*
Tests used:
MCF-7 cells [1] = assay: FITC cholestosome (myristate/palmitate) uptake in MCF-7 cells, fluorescent imaging; assay type: cell-based, human
Description: In this experiment, 22 ug of FITC formulation was placed on MCF-7 cells, Fluorescent imaging was performed over time, with images taken at 2, 4, 8 and 24 hours.

[2] = assay type: in vivo; settings: rats
Description: These experiments were conducted to evaluate the comparative plasma and tissue to plasma ratios of insulin between a cholesterol-encapsulated insulin formulation (cholestosome-insulin) administered by oral gavage and by subcutaneous injection, both compared with the same insulin administered subcutaneously (s.c.) In healthy female Wistar rats.
This study was designed for comparison of insulin bioavailability from the formulations administered, which is defined by the Area under the curve (AUC) calculated as the ratio of Oral to […] over 24 hours following the dosing of the formulation,
Sixteen healthy female Wistar rats ranging from 246.5 to 292.8 g in body weight were distributed into three study groups. Two 6-rat cohorts were dosed with cholestosome insulin oral and SC injection and the remaining 4 rats were given subcutaneous regular insulin as controls. Each rat was dosed with 1.0 ml/animal of a solution identified by Sponsor with cage number and rat number only. Two groups of female Wistar rats were fasted, ranging in duration from 3 hr prior—to 1 hr post-dosing. Rats had free access to water at all times. […] Rats were monitored daily for mortality and morbidity, including signs of hypoglycemia. […]
Results. […] All AUG values were corrected for actual dose given (subtracting residual returned) and expressed as AUG to a dose of 0.25 units, which was approximately 1 unit/kg of body weight. […]

[3] = Temperature stability of insulin; assay type: physicochemical
Description: Once there is the addition of the aqueous molecule or construct, the mixture is sonicated until there is a cloudy solution formed, thereby minimizing waste from un-dissolved esters, with sonication providing energy for unilamellar vesicle formation. The aqueous component is also maintained at the target temperature prior to its addition, and as stated previously for most peptides, proteins and genes, the highest temperature that can be tolerated is only about 45-50° C.
On the basis of these finding and considering the stability of the proteins and peptides being formulated, including insulin by way of example, the operating temperature of encapsulation procedures was kept,between 40 and 55 degrees centigrade. […] By way of example, optimal insulin preparation was at 37-55 degrees centigrade.

[4] = Insulin solubility and integrity versus pH (HPLC); assay type: physicochemical
Description: Many preparations of cholestosome insulin have been made. […] Accordingly, the solubility limits of Insulin were empirically tested at pH 3.5, 6, 7 and 8. Data on the […] of each formulation are plotted by pH of the insulin solution are plotted at two different ionic strengths of PBS buffer in FIG. 9.
The maximum concentration at each tested pH was applied to the following: Stock solutions for each pH and ionic strength combination are prepared. The empirically determined maximum concentration of Human Recombinant Insulin (SAFC Biosciences and. ProSpec) was added to the stock solution. These stock solutions were then readjusted to the desired pH using either 1M HCl or 1M NaOH as needed 5.0 ml of stock solution was heated to 55° C. and used as the aqueous component in preparations.

[5] = rats, chitosan nanoparticles; cited from earlier work
MCF-7 cells [6] = assay: Pilot study of MG-132 on MCF-7 cells exposed to 1117 insulin-cholestosomes; assay type: cell-based, human
Description: A pilot study was performed whereby […] to MCF -7 cells that were also exposed to 1117 insulin-cholestosomes.

melanoma = settings: patients with melanoma; cited from earlier work
[7] = Eligen proteinaceous coating and SNAC; cited from earlier work

Description for Caco-2 cells: Caco-2 intestinal epithelial cells were gown in Dulbecco's Modified Eagle's Media (DMEM) supplemented with 20% fetal bovine serum (heat inactivated), 1 nM sodium pyruvate, 100 U/ml penicillin, 100 μg/ml streptomycin, 292 μg/ml L-Glutamine and 1× MEM non-essential amino acids (Invitrogen, #11140). Cells were cultured in 75 cm^2 flasks and incubated in a 37° C. and 5% CO2 environment until 80-90% confluent. The Biocoat HTS Caco-2 assay system (Becton Dickson, #0354802) was used for transport studies. Cells were seeded at a density of 3×10^5 cells/well and differentiated into enterocyte-like cells using, the manufacturer's protocol. This system used a special fibrillar collagen insert and a serum free differentiation medium enhanced with butyric acid, hormones, growth factors and metabolites to establish a differentiated monolayer in 3 days instead of the 21 days that is normally required for this process. This involved incubation of the cells with a DMEM based media containing 10% FBS for 48 hours at 37° C., 5% CO2 after seeding to establish a growth phase. The media was then replaced by the defined differentiation media and incubated for another 48 hours. At this point the Caco-2 cells are ready for further studies.
The differentiated Caco-2 cells were used for the production of Chylomicrons using the method of Luchoomun and Hussain-1999 (21). This method uses supplementation with oleic acid (OA) and taurocholate (TC) at a 1.6:1.0 mM ratio to achieve chylomicrons production. The OA:TC solution was made up in the DMEM based cell growth media used in the BIOCOAT differentiation protocol by adding OA to a 10 mM TC solution and incubated at 37° C. until clear. This was then 0.2 u filtered and used immediately for the transport studies. Treatments plus OA:TC were added in a 450 ul volume to the apical side of the well and incubated for 24 hours for transport studies and chylomicrons production. PBS plus lingind glucose was added in a 1ml volume to the basolateral side. […]

Fluorescein Isothiocyanate [FITC]
uptake / fluorescence, encapsulated FITC and FITC alone (MCF-7 cells [1]): uptake of FITC itself into MCF-7 cells

FITC-insulin: FITC labeled regular insulin purchased commercially, unencapsulated
FITC signal found in the Caco-2 cells (Caco-2 cells; Caco-2): about 1%
FITC signal remaining on the apical side (Caco-2 cells; human, Caco-2, 24 h): ~100%

Insulin: Human Recombinant Insulin made in bacteria
signs of drug toxicity or severe hypoglycemia [2]: No signs of drug toxicity or severe hypoglycemia
tolerability ([2]; oral and SC (cholestosome), SC (regular insulin)): well tolerated
stability across operating temperature range ([3]; between 40 and 55 degrees centigrade): stable
temperature up to which insulin remains stable ([3]; under certain conditions): up to 55 °C
Insulin solubility ([4]; pH 8.0): high
integrity of insulin by HPLC analysis ([4]; pH (8) environment): breaks down the insulin A/B Dimer
oral bioavailability of insulin [5]: 17-20%

CC(C)C[C@@H](C=O)NC(=O)[C@H](CC(C)C)NC(=O)[C@H](CC(C)C)NC(=O)OCc1ccccc1 [MG-132] (Cbz-Leu-Leu-Leu-aldehyde)
effect on exocytosis of insulin-cholestosomes (MCF-7 cells [6]): caused the likely exocytosis of more intact insulin-cholestosomes

ipilimumab: CTLA-4 antibody
overall tumor response (OR) rate (melanoma): 11%

Aspart Insulin
oral bioavailability of insulin [5]: 17%

acid protected insulin: insulin protected from acid but not cholestosome encapsulated, Caco-2 control
insulin passing the apical Caco-2 barrier (Caco-2 cells; Caco-2): < 5%

semaglutide: a GLP-1 agonist under development by Novo Nordisk
oral bioavailability [7]: 2.5%
